According to paper PMC4132270:

Tests used:
[1] = target: Taq 1C2 (Thermus aquaticus) (UniProt P19821); test: EMSA; settings: 3' end blocked with dideoxy TMP (3' ddT; unclear whether the printed 3' T is the ddT or it is added); 0.25 nM hairpin, 0.5-1000 nM enzyme, 1x Taq buffer (50 mM KCl for wild type, 95 mM KCl for mutants; full composition and pH not stated for this assay), 37 C …
[2] = target: Taq 42 G59W;L245M;L375V;E507K;K508R;E734G;F749I (Thermus aquaticus) (UniProt P19821); test: EMSA; settings: 3' end blocked with dideoxy TMP (3' ddT; unclear whether the printed 3' T is the ddT or it is added); 0.25 nM hairpin, 0.5-1000 nM enzyme, 1x Taq buffer (50 mM KCl for wild type, 95 mM KCl for mutants; full composition and pH not stated for this assay), 37 C …

Question: “CTCCAGACACGACGCAGTTGCCCGATGGTCGACGTTCGCGAAAGCGAACGTCGACCATCGGGCAACT [hairpin primer-template]” was tested. Which Kd [1] did it give?
Answer: 1.9 nM

Question: What about the Kd [2] of the same sequence?
Answer: 2.75 nM
